The text below walks through data of the DeepSol protein solubility set.

The data set is described as follows: soluble on expression in E. coli; label from the status in PepcDB or PDB records.
With “MGSDKIHHHHHHMTDRSAVPVDSPAGSTRTVILEKALELFAETGFNGVSMRRIAQEVGINPATLYHHFVHKEDLYEQVLRFAYAEQAAHFSALVSIEGTPQSQLGEFIREFAFYIAKDQHFFRLVKREQLEGNSERLKMLVDLLFGKQYEAMVRSVGRVTQAFDTHMLVTSLLGLVLHHYETRHMRQFFVEYMPSQDDPEVVADHCCRLFFFGIQGAGAAQEVPYRSEQSLLSADGEHSRDGAG”, the “soluble on expression in E. coli” value is “not soluble”.
“MEIQHLDGHIVKVQRDKVTWPGARLRKKDEGMPSLEDNNKKGMLVVTFDVEFPKTELSDEQKAQIIEILQQNTVKPKAYNGL”: the “soluble on expression in E. coli” value was “not soluble”.
With “GFIDSHVHIESSMVSPKEFARAVISRGTTTIIVDPHEIANVCGMDGIKYMMEETKNMPLDVFFMLSSCVPATSFETSGAVLKAEDLKELIDSDRVLGLGEMMNYPGVLSREEEVLNKLKLAGSYNKIVDGHAPSVRGNELNAYNLAGIKTDHECSSIEEMNEKIRNGMYIAIREGSAAKNLDILIKGVNAKNERRIMFCADDRHPDDILKSGHMDNCVRRAIYNGIENTAAIRMASINAAECYKLERVGAIAPSYKADLVVLEDLKDVKVNMVIKSGEVVFKDNKHLKDMGSKSDI”, the “soluble on expression in E. coli” value is listed as “not soluble”.
Turning to “MNTNNALMQRRHNAVPRGVGQIHPIFAERAENCRVWDVEGREYLDFAGGIAVLNTGHLHPGIVSAVEAQLKKLSHTCFQVLAYEPYLALCERMNQKVPGDFAKKTLLVTTGSEAVENAVKIARAATKRSGAIAFSGAYHGRTHYTLSLTGKVHPYSAGMGLMPGHVYRALYPCPLHNISDDDAIASIERIFKNDAAPEDIAAIIIEPVQGEGGFYAASPAFMQRLRALCDQHGIMLIADEVQSGAGRTGTLFAMEQMGVAADITTFAKSIAGGFPLAGVTGRADVMDAIAPGGLGGTYAGNPIACAAALAVLDIFEQENLLQKANTLGKTLRDGLMEIAETHREIGDVRGLGAMIAIELFENGDPGKPNAALTADIVTRAREKGLILLSCGPYYNILRILVPLTIEASQIRQGLEIIAQCFDEAKQA”, the “soluble on expression in E. coli” value is reported as “not soluble”.
For the sequence “SGQKVTGGIKTVDMRDPTYRPLKQELQGLDYCKPTRLDLLLDMPPVSYDVQLLHSWNNNDRSLNVFVKEDDKLIFHRHPVAQSTDAIRGKVGYTRGLHVWQITWAMRQRGTHAVVGVATADAPLHSVGYTTLVGNNHESWGWDLGRNRLYHDGKNQPSKTYPAFLEPDETFIVPDSFLVALDMDDGTLSFIVDGQYMGVAFRGLKGKKLYPVVSAVWGHCEIRMRYLNGLDPEPLPLMDLCRRSVRLALGRERLGEIHTLPLPASLKAYLLYQ”, the “soluble on expression in E. coli” value is “soluble”.
For “MGHHHHHHSHIHRIDSTEVIYQPRRKRAKLIGKYLMGDLLGEGSYGKVKEVLDSETLCRRAVKILKKKKLRRIPNGEANVKKEIQLLRRLRHKNVIQLVDVLYNEEKQKMYMVMEYCVCGMQEMLDSVPEKRFPVCQAHGYFCQLIDGLEYLHSQGIVHKDIKPGNLLLTTGGTLKISDLGVAEALHPFAADDTC” the value was “not soluble”.
For “GPGSMEGERTMKKNKKGSARGDCDGMISVGAKRLLVSVQDKNRRQKHGEFFDELLLVTQKAKRSPQVINIPGKNEVPVLAVGYIARAMGLNLSNVEVSCLVEMVEEKDLASRGFVPADALKEVIVEALMTGIMAPPKAPVKATPSRKKTASTLPPATIKPISVVRDGEEAIYEAFCVLDLSRRGYLEAEEMRHFLRIGGEPFTEEEVEEFITAAADPENGRIYYEEFADVLARE” the value was “soluble”; for “MTLAIEMKDVMKSFNEKTALRNVNIEVKQGEIFGFLGPSGSGKTTTVKILTSQLLHSVGTVRVLGKDITGPSSIDYKRIGILTDNSGLYERLSIYDNLLLFCDLYDCKKERIDEVLAQVNLLEDKKTLVKKLSKGMKQRVTLARAILHKPDILFLDEPTSALDPVNVQNIHKILKDLNREGTTIFLTTHNMDEAETLCNRIAFLCSGEIVALDTPENLRLQYAKDQIQVVLKDKKKETVQKDELGAKRISEWMKKGELLSIHSYEPTLGDIFIEVTGRGL”, “not soluble”; for “MLGLFDQGRLIGAVVLDPRRLGPERDWLQLKFLHLSHAYRRRGLGAHLFHLAATQARHLGASALYVSATPSQNTVDFYTRLGCR”, “soluble”.
The entry for “MAHHHHHHMLRGTPVRRASLRYRRPYWMMFLKGVDNWKIYTVIQQPDHQRTEMLYQAWLGGLDRPYTRPKCMANQPLWLSKKRHMLRKERLDGPETPLEKYVLEWHKKFHSFQGTERPTPDDLHTALDLVERPLDLSYALQLLGQCRNLNNIRFAKETFLVFLEACLRVGRRDCAEYALEHAEPLGFWFIDEDHRRYLQGEQTWYKLSPLDNLYYPVEENAKLNEGRKPITRLSPATESPGSGTAISDGEPSTDVEGETTVDDEIAQLEAELAALEREGGGK” is “not soluble”; for “LTLGSISLTAFIMGVVFWGGFNTALEATNTEEFCIGCHSMESKPYQELQKTVHWSNHSGVRATCPDCHVPHSWGRKIARKMEASSDVWGWVFNTVNTSEKFEDKRLEMASREWARFERDDSLACKNCHNYDSMKWDTMSKLAQKQMKRAAEKDQSCVDCHKGIAHILPDMGTARAPQLIAEVGTGPSKFTNEQYYFSALTKPLFFSAKGDVEAGTLNVATKVKILESKENRVKVSISGWRKQIGAGRVIYYDFGINMLTAQLSKEAAKTEGVINGFEEKEDEMTGLKWQRVETTLWTDAEYLITEQQPLWDYARTTFRSSCSVCHTQPDEAHFDA” it is “not soluble”; for “MGSDKIHHHHHHMAKIFDIKYGNDEKQKLDLYLQDSVAPLVFYTHGGGWWQGDKRKDTKIFDSLFSAGFSVASVNYRLADKNNPYPAQLDDCHSALTFLQQSDYKFRKDKIALLGASSGANISVSLSIETGYPTVSWSGQFDFKGFLKTHTAITGRKAVDNPDPDKGSRQQSYYKWLLEKLFNGDLSRVGEATLQHKITSKTGPVLLINSAAELAPVMEVYKMQEAYLENGIEVDTIIFPGDRHALGYADDALKPTIDFLETHLQ” it is “not soluble”.
“MRYLTAGESHGPRLTAIIEGIPAGLPLTAEDINEDLRRRQGGYGRGGRMKIENDQVVFTSGVRHGKTTGAPITMDVINKDHQKWLDIMSAEDIEDRLKSKRKITHPRPGHADLVGGIKYRFDDLRNSLERSSARETTMRVAVGAVAKRLLAELDMEIANHVVVFGGKEIDVPENLTVAEIKQRAAQSEVSIVNQEREQEIKDYIDQIKRDGDTIGGVVETVVGGVPVGLGSYVQWDRKLDARLAQAVVSINAFKGVEFGLGFEAGYRKGSQVMDEILWSKEDGYTRRTNNLGGFEGGMTNGQPIVVRGVMKPIPTLYKPLMSVDIETHEPYKATVERSDPTALPAAGMVMEAVVATVLAQEILEKFSSDNLEELKEAVAKHRDYTKNY”: the “soluble on expression in E. coli” value is given as “soluble”.
For “MKWYTKYLQVYEKPFSEAPQEIVEEVRNKLKLLQSDNPLVTVSLIGYNEEKHLLASLWSLSEMKCKYPIEIIGTDNDSKDQTATIYEATGIPYVIEHQHSCGHARLCGLKRAKGKYHINIDSDTMYPPHYVETMVDALERPGIVAVSSLWSYIPDKEHSWVGLKIYEFIRDIHLWIQSIKRPELSVRGLVFAYRTDYARQVGIRTDIRRGEDGSLALRLKEYGNIYFIRKRKARAITGYGTISADGSLFNSFKVRAIYALKNIGRVFTRKKEYKDEDDNLIKS” the value was “not soluble”; for “MDQAHANAASLEASDLFDADWYLAEYPDVQSLQMPPAVHYLWLGARLGRNPSPRFSTRSYLDANPDVAQAGINPLLHFLLAGRDEGRSGTILAAPSRGSTETDVNASTFGEHRPYVFLPPADLDRIAAQWSKDSARPDAQGRGIAIFSAITGSYDSINHHEHLIPGADYLLFSDAPKPRYVYQPRQAPWFDCDTVRAARFIKTHPHMLLGGYRIAVWIDGNILIRGDLLPLVQRFEESGLAFGAVPHPLRQSVYAEAVECMKRGKDDEATIRRQMQRYRREEFDCEDLIESNLLMFRLGHPSLAPLLDTWWAQIESGSRRDQLSLNYALHKTGVEWLALTQRPHSVRDHPALALMHHRSQFNPAEPGVCLPRPRERTFAEVRAERIAAQSARRADVIVCVHNAPEMVARCLDSVRTGQNPDRHRIIIIDDGSGRDTAELVSRFAADTPNTVLIRNAVAGGYTRAANQGLKAMDADMAILLNSDTVVAPGWIEKLLDAAFSNPGVGIVGPMSSAASHQSIPEHQSRHDQTAINDLPPGWSAADMDAWCERMAPADFLPRVPLVHGFCFAVTREAVERIGYLDEDSFPDGYGEENDYCLRATDAGVGLAIATHTYVFHEKSQSYQSDRRISLMKRGNGKIRELHGDERVARAVRSMQQNPHLGRLRTAAARLFAVTTPETPALEHHHHHH”, “not soluble”; for “MAHHHHHHMFRSASCILLAAKTIPINPQKPFKLHTAGRDDVPPVPTTATYDTEQMKKCLEMMFRIRRMESLCDQSYKLKKIRGFCHLYIGQEAIPVGMENVLTLEDLIVTAYRDHAWYIVRGGTPGEVFAEMFGKEGGCSKGKGGSMHMYSVKNNFFGGNGIVGAQVPIGAGLGWRFALENRDKPRNVAVTFYGDGAANQGQVFEAMNIAAIHRIPVIFCCENNQFGMGTSKERAAYQPEMYRRGDYIPGLQVDGMDVLAVQEGTRWAKEWCLSGKGPIVLEFDSYRYVGHSMSDPDSQYRKKSDIQDVRKTRDCIHKMKDFMLEEGIMTDEEMKKLEKDVKKEVDQQLQPAEKQKPTPRSELFTDIYVGEQYEHRTTQGTVYAKP”, “not soluble”.
For “MGAAKNIWALANAEDAANDAEQIPYSSFVVDTSLPLPLMIPRIIELCKDLFKNWGELDDSLFSVERVSGGITNLLLKVSVKEDTNKEVSVTVRLYGPNTEYVINREREILAIKYLSAAGFGAKLLGGFGNGMVQSFINARTLEPSDMREPKIAAQIARELGKFHKVDIPGSKEPQLWVDILKFYEKASTLTFEEPDKQKLFETISFEELHKEIIELREFTGLLNAPVVFAHNDLLSGNFMLNDEEEKLYLIDFEYGSYNYRGFDIGNHFNEYAGYDCDYSLYPSKEEQYHFIKHYLQPDKPDEVSIAEVESVFVETDAYKLASHLYWAIWAIIQARMSPIEFEYLGYFFLRYNEYKKQKPLTFSLVTSHLSASL” the value was “soluble”; for “MGSDKIHHHHHHMNMKVLLVNPVGEWGGAEKIFFLVSQIFQKTGFELYVLLGSRGILYEKLRNLNFNISIMNFPDLSENSIVIAGRRFQLPHHLLKNLRKIKILSKKFWDYLRILKPDIIYLNNLRSLVLYYETVRTYGKPCEAVVIWHEHGYQRSIIRQLILDKIYLKFVDAVICVSKHLANKHLKDVQQKLYVVHNGIPDELNAIEKENVRYEYNNNKVLIIHPAFITYWKGQHLALKAVDLLVKRGVRNFEIWFFGEPRSKQDYKYFKKLKQFVRSKNLEKQVFFKGFSANIIDEMLKADIVISTSVEDDPFPTILLEASMIGKPVVTTDAGGSGEIVKNGETGFVVKKDKRELASALCELIQNKELRDVFSKNARDRFLKEFSILAFEKRFLETLESILRR”, “not soluble”.
Take “MEGLINALKYLAEHEPIDNFEEIRTRNSPIELPSGLSNFEQNIFLKENLSPKLQNDDSLKTHYWIIREWGGIKSFKQSAENSQLIRQFLSELNSGKLSSGLLKISSLSKLASFIDCERFAIYDSRAIFSLNWLLFKFTNADLFFQPQGRNRELEIRNMNVLFHFSDIKPNYRKPDVSFHQYCGLLQDLAKQVYGKQAKPYHIEMLLFKIATTWICADMDQLIKFDCLRNQDFQTA”: the “soluble on expression in E. coli” value is “not soluble”.
As to “MQNHVISLASAAERRAHIAATFGSRGIPFQFFDALMPSERLEQAMAELVPGLSAHPYLSGVEKACFMSHAVLWKQALDEGLPYIAVFEDDVLLGKDAEKFLAEDTWLEERFDKDSAFIVRLETMFAKVIVRPDKVLNYENRSFPLLESEHCGTAGYIISREAMRFFLDRFAVLPPERIKAVDLMMFTYFFDKEGMPVYQVSPALCTQELHYAKFLSQNSMLGSDLEKDREQGRRHRRSLKVMFDLKRALGKFGREKKKRMERQRQAELEKVYGRRVILFKLEHHHHHH”, the “soluble on expression in E. coli” value is on record as “soluble”.
